Key:
Tar4EΔpp and Tar4QΔpp = assay: CheB binding to pentapeptide-lacking Tar, 4E and 4Q (biolayer interferometry); design: species or system E. coli
Experimental: (§1) We determined the kinetics of association and dissociation of methylesterase/deamidase CheB in its low- and high-activity form with the E. coli aspartate chemoreceptor Tar using biolayer interferometry ([22], [23]) and isolated receptor homodimers in Nanodiscs ([24], [25]). Apparent rate constants of association and dissociation were derived from global fits of time courses for binding and release (see Fig. S1 in the supplemental material). Equilibrium dissociation constants were calculated from those apparent rate constants.
(§2) E. coli CheB and Salmonella CheB D56C/C207S/C309S and D56C/S164A/C207S/C309S were purified as described previously ([11]). CheBC (amino acids [aa] 153 to 349) was purified using the procedure of West et al. ([40]), except that Bio-Gel P-60, was not used. […] The extent of modification was 59% for the former and 60% for the latter determined by reversed phase chromatography essentially as described previously ([26]) and confirmed by Nano LC-Nanospray QTQF mass spectroscopy. […]
(§3) Kinetics of CheB association and dissociation with Nanodisc-embedded Tar biotinylated at L378C were determined using biolayer interferometry ([22], [23]) as measured by a BLItz instrument (ForteBio, Menlo Park, CA, USA) and described in reference. […]

[1] = tested on: pentapeptide-bearing Tar4E and Tar4Q; assay: CheB binding to pentapeptide-bearing Tar, 4E and 4Q (biolayer interferometry); design: species or system E. coli; details: Tar4E versus Tar4Q
Experimental: as §1, §2, §3

[2] = tested on: Tar4E and Tar4Q with or without pentapeptide; assay: CheBC binding to pentapeptide-bearing and pentapeptide-lacking Tar (biolayer interferometry); design: species or system E. coli
Experimental: as §1
E. coli CheB and Salmonella CheB D56C/C207S/C309S and D56C/S164A/C207S/C309S were purified as described previously ([11]). CheBC (amino acids [aa] 153 to 349) was purified using the procedure of West et al. ([40]), except that Bio-Gel P-60, was not used. CheB D56C/C207S/C309S and CheB D56C/S164A/C207S/C309S were modified to create a disulfide-linked phosphoryl group on D56C following the procedure described in reference but using a 10-fold molar excess of DTNB [Ellman’s reagent, 5,5′-disulfanediylbis(2-nitrobenzoic acid)] rather than 90-fold and a 50-fold molar excess Na3SPO3 rather than 1,000-fold. The extent of modification was 59% for the former and 60% for the latter determined by reversed phase chromatography essentially as described previously ([26]) and confirmed by Nano LC-Nanospray QTQF mass spectroscopy. Membrane scaffold protein MSP1D1(-) ([41]) was purified as described previously ([25]). Tar4E L378C, Tar4Q L378C, Tar4EΔpp-6H L378C, and Tar4QΔpp-6H L378C were purified, incorporated into Nanodiscs at approximately one receptor dimer per disc, and biotinylated at L378C as described previously ([23], [42]). […] These activities were confirmed for representative samples used in our analyses. […]
as §3

[3] = molecular target: Tar4EΔpp-6H L378C, E. coli Tar lacking the carboxyl-terminal pentapeptide, all-glutamyl form, homodimer in … (E. coli, UniProt P07017 1-553, L378C, biotinylated at L378C); assay: SPR
[4] = molecular target: Tar4Q L378C, E. coli aspartate chemoreceptor Tar, all-glutaminyl form with carboxyl-terminal pentapeptide, … (E. coli, UniProt P07017 1-553, L378C, biotinylated at L378C); assay: SPR
[5] = molecular target: Tar4E L378C, E. coli aspartate chemoreceptor Tar, all-glutamyl form with carboxyl-terminal pentapeptide, … (E. coli, UniProt P07017 1-553, L378C, biotinylated at L378C); assay: SPR
[6] = molecular target: Tar4QΔpp-6H L378C, E. coli Tar lacking the carboxyl-terminal pentapeptide, all-glutaminyl form, homodimer in … (E. coli, UniProt P07017 1-553, L378C, biotinylated at L378C); assay: SPR
CheB methylesterase = details: relative to phosphorylation; ref [8]; cited from earlier work
From the text: A high-activity form of the methylesterase/deamidase, designated CheB-P, is created by phosphorylation at a specific aspartyl residue in its N-terminal regulatory domain ([6][–][8]). However, activation is short-lived because of a high rate of autodephosphorylation ([7]), making it difficult to investigate binding of this activated form of the enzyme to chemoreceptors with confidence. Instead, we used a stable, functionally active mimic of phosphorylated CheB from Salmonella enterica subsp. enterica serovar Typhimurium (hereafter Salmonella) characterized by Saxl and coworkers ([26]). […] To investigate the role binding affinity might have in that activation, we measured binding of CheBC, a form of the methylesterase lacking the amino-terminal regulatory domain and linker, to pentapeptide-bearing and pentapeptide-lacking forms of Tar.

Row | Molecule | preference for substrate (4Q) versus product (4E) form (Tar4EΔpp and Tar4QΔpp; Tar4QΔpp versus Tar4EΔpp) | fold weaker than binding to pentapeptide / pentapeptide-bearing receptor (Tar4EΔpp and Tar4QΔpp; ratio of KD, Tar4Δpp versus pentapeptide-bearing) | effect of receptor signaling state on binding [1] | binding to chemoreceptors versus CheB-P* ([2]; compared with activated phosphorylation mimic CheB-P*) | preference for product form Tar4E versus substrate form Tar4Q ([2]; ratio of KD) | effect of presence or absence of pentapeptide on binding ([2]; with versus without NWETF) | Kd [3] [µM] | Kd [4] [µM] | Kd [5] [µM] | Kd [6] [µM] | activation by deletion of the regulatory domain (CheB methylesterase)
1 | methylesterase/deamidase CheB from E. coli, low-activity, unphosphorylated form (enzyme, UniProt P07330 1-349, looked up, CheB methylesterase/deamidase of E. coli, unphosphorylated, from plasmid pCW/cheB; measured with 2 mM DTT in the buffer; also called low-activity CheB; unmodified CheB; source: E. coli K-12 RP3098 with pCW/cheB, purified) MSKIRVLSVDDSALMRQIMTEIINSHSDMEMVATAPDPLVARDLIKKFNPDVLTLDVEMPRMDGLDFLEKLMRLRPMPVVMVSSLTGKGSEVTLRALELGAIDFVTKPQLGIREGMLAYNEMIAEKVRTAAKASLAAHKPLSAPTTLKAGPLLSSEKLIAIGASTGGTEAIRHVLQPLPLSSPALLITQHMPPGFTRSFADRLNKLCQIGVKEAEDGERVLPGHAYIAPGDRHMELSRSGANYQIKIHDGPAVNRHRPSVDVLFHSVAKQAGRNAVGVILTGMGNDGAAGMLAMRQAGAWTLAQNEASCVVFGMPREAINMGGVCEVVDLSQVSQQMLAKISAGQAIRI | not significantly different | approximately fourfold | the signaling state of the chemoreceptor coiled-coil body did not influence the binding of its pentapeptide to low-activity CheB | – | – | – | – | – | – | – | –
2 | CheBC, catalytic domain of E. coli CheB lacking the regulatory domain and linker (domain or fragment) LSSEKLIAIGASTGGTEAIRHVLQPLPLSSPALLITQHMPPGFTRSFADRLNKLCQIGVKEAEDGERVLPGHAYIAPGDRHMELSRSGANYQIKIHDGPAVNRHRPSVDVLFHSVAKQAGRNAVGVILTGMGNDGAAGMLAMRQAGAWTLAQNEASCVVFGMPREAINMGGVCEVVDLSQVSQQMLAKISAGQAIRI | – | – | – | bound much more weakly to chemoreceptors than the activated phosphorylation mimic CheB-P* | approximately twofold | no significant difference in binding in the presence or absence of pentapeptide | 660 | 1400 | 590 | 1200 | not as effectively as by phosphorylation
